# No end group written: not given here. *: point of attachment. Biotin = O=C1N[C@H]2[C@H](CS[C@H]2CCCCC(=O)*)N1
# T1: Human PPARδ-LBD (amino acids 170–441), amino-terminal His-tagged (human, UniProt Q03181 170-441)
# T1 construct: Form used in the FRET assays; also called hPPARδ-LBD; PPARβ; source: Rosetta (DE3) pLysS cells, pET28a, purified (TALON, HiTrap Q, Superdex 75); not shown: His tag, N-terminal, kept
# T1 sequence (looked up): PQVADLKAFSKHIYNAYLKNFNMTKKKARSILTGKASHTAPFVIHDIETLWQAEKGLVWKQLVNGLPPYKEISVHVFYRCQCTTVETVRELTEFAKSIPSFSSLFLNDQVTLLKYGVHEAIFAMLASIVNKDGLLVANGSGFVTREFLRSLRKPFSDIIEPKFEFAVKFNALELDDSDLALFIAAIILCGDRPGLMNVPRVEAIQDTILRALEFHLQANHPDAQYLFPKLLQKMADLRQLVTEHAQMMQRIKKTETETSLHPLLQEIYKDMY
# T2: Human PPARα-LBD (amino acids 200–468), amino-terminal His-tagged (human, UniProt Q07869 200-468)
# T2 construct: Form used in the FRET assays; detected through the His tag with a Tb cryptate anti-6×His antibody; Routine preparations hold intrinsic fatty acids; also called hPPARα-LBD; NR1C1; source: Rosetta (DE3) pLysS cells, pET28a, purified (TALON, HiTrap Q, Superdex 75); not shown: His tag, N-terminal, kept
# T2 sequence (looked up): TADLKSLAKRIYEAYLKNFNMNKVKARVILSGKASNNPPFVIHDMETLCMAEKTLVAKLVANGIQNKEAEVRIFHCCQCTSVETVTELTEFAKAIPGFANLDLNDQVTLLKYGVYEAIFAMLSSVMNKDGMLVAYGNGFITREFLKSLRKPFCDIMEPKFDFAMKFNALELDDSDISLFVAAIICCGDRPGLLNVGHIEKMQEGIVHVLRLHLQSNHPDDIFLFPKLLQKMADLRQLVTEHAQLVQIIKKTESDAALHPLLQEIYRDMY
# T3: Human PPARγ-LBD (amino acids 203–477 in isoform 1), amino-terminal His-tagged (human, UniProt P37231-2 203-477)
# T3 construct: numbers count on: isoform 1; Form used in the FRET assays; mainly prepared as apo (unliganded) form; also called hPPARγ-LBD; NR1C3; source: Rosetta (DE3) pLysS cells, pET28a, purified (TALON, HiTrap Q, Superdex 75); not shown: His tag, N-terminal, kept
# T3 sequence (looked up): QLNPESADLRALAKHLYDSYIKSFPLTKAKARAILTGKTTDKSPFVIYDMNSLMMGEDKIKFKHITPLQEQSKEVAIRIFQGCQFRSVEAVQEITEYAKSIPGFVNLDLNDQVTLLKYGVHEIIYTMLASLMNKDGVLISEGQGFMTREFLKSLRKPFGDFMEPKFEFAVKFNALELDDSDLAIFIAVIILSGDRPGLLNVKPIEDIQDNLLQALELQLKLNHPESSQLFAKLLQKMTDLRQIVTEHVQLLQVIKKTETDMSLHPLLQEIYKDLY
# Key:
# Settings in all cases: both partners purified
# [1] = target: T1, Human PPARδ-LBD (amino acids 170–441), …; assay: FRET or BRET; single-emission TR-FRET as a1, with the agonist titrated (pemafibrate for PPARα-LBD, seladelpar for PPARδ-LBD, pioglitazone for PPARγ-LBD); signal ratios normalised to 1% DMSO
# [2] = target: T2, Human PPARα-LBD (amino acids 200–468), …; assay: as above
# [3] = target: T1, Human PPARδ-LBD (amino acids 170–441), …; assay: FRET or BRET; dual-emission TR-FRET: a FITC-coactivator peptide and a ULight-coactivator peptide together in one well with the His-tagged LBD and Tb anti-6×His antibody; agonist titrated (pemafibrate, seladelpar or pioglitazone); buffer A, room temperature
# [4] = target: T2, Human PPARα-LBD (amino acids 200–468), …; assay: as above
# [5] = target: T3, Human PPARγ-LBD (amino acids 203–477 in …); assay: FRET or BRET; single-emission TR-FRET as a1, with the agonist titrated (pemafibrate for PPARα-LBD, seladelpar for PPARδ-LBD, pioglitazone for PPARγ-LBD); signal ratios normalised to 1% DMSO
# [6] = target: T3, Human PPARγ-LBD (amino acids 203–477 in …); assay: FRET or BRET; dual-emission TR-FRET: a FITC-coactivator peptide and a ULight-coactivator peptide together in one well with the His-tagged LBD and Tb anti-6×His antibody; agonist titrated (pemafibrate, seladelpar or pioglitazone); buffer A, room temperature
# [7] = target: T3, Human PPARγ-LBD (amino acids 203–477 in …); assay: FRET or BRET; single-emission TR-FRET (LANCE Ultra); His-tagged LBD (9.5 µL of 400 nM) with Tb cryptate anti-6×His antibody, biotin peptide (5 µL of 1 µM) with ULight-Streptavidin or FITC-Ahx peptide; buffer A (20 mM HEPES pH 7.4, 150 mM NaCl, 1 mM EDTA, 1 mM DTT, 0.005% Tween 20, 0.1% fatty acid-free BSA); room temperature, 2 h; without agonist (vehicle 1% DMSO)
# [8] = target: T2, Human PPARα-LBD (amino acids 200–468), …; assay: as above
# [9] = target: T1, Human PPARδ-LBD (amino acids 170–441), …; assay: FRET or BRET; dual-emission TR-FRET: ULight-corepressor peptide and FITC-coactivator peptide together in one well with the His-tagged LBD and Tb anti-6×His antibody; agonist titrated from vehicle (pemafibrate, seladelpar or pioglitazone); buffer A, room temperature
# [10] = target: T3, Human PPARγ-LBD (amino acids 203–477 in …); assay: as above
Binder,EC50 of seladelpar (the ligand is titrated) for recruitment of the peptide [1],EC50 of pemafibrate (the ligand is titrated) for recruitment of the peptide [2],"maximal recruitment in dual-FRET with seladelpar, that of FITC-CBP in the same well taken as 100 [3]","maximal recruitment in dual-FRET with seladelpar, that of FITC-TRAP in the same well taken as 100 [3]","maximal recruitment in dual-FRET with pemafibrate, that of FITC-CBP in the same well taken as 100 [4]","maximal recruitment in dual-FRET with pemafibrate, that of FITC-TRAP in the same well taken as 100 [4]",EC50 of pioglitazone (the ligand is titrated) for recruitment of the peptide [5],"maximal recruitment in dual-FRET with pioglitazone, that of FITC-CBP in the same well taken as 100 [6]","maximal recruitment in dual-FRET with pioglitazone, that of FITC-TRAP in the same well taken as 100 [6]",binding result [7],binding result [8],binding result [9],binding result [10]
"Biotin-EAEEPSLLKKLLLAPANTQ (also called ULight-PGC1α; source: synthetic peptide (GenScript)) [PGC1α coactivator peptide, biotin-labeled (AAs 137–155)]",48.1 nM,82 nM,359 FITC-CBP = 100,313 FITC-TRAP = 100,108 FITC-CBP = 100,150 FITC-TRAP = 100,–,–,–,–,–,–,–
"Biotin-CPSSHSSLTERHKILHRLLQEGSPS (also called ULight-SRC1; SRC-1 M2; source: synthetic peptide (GenScript)) [SRC1 coactivator peptide, biotin-labeled (AAs 676–700)]",53.5 nM,87.8 nM,156 FITC-CBP = 100,55.5 FITC-TRAP = 100,115 FITC-CBP = 100,77 FITC-TRAP = 100,2110 nM,52 FITC-CBP = 100,57.1 FITC-TRAP = 100,–,–,–,–
"Biotin-SGNLVPDAASKHKQLSELLRGGSGS (also called ULight-CBP; source: synthetic peptide (GenScript)) [CBP coactivator peptide, biotin-labeled (AAs 56–80)]",33.2 nM,60.9 nM,508 FITC-CBP = 100,372 FITC-TRAP = 100,431 FITC-CBP = 100,508 FITC-TRAP = 100,637 nM,237 FITC-CBP = 100,295 FITC-TRAP = 100,–,–,–,–
"Biotin-PVSSMAGNTKNHPMLMNLLKDNPAQ (thyroid hormone receptor-associated protein 220 (TRAP220), human, AAs 631–655, LXXLL motif LMNLL; also called ULight-TRAP220; ULight-TRAP; source: synthetic peptide (GenScript)) [TRAP220 coactivator peptide, biotin-labeled (AAs 631–655)]",54.8 nM,130 nM,402 FITC-CBP = 100,108 FITC-TRAP = 100,63.3 FITC-CBP = 100,75.8 FITC-TRAP = 100,1910 nM,107 FITC-CBP = 100,65.8 FITC-TRAP = 100,–,–,–,–

# Second part, the binder after the results:
EC50 of seladelpar (the ligand is titrated) for recruitment of the peptide [1],EC50 of pemafibrate (the ligand is titrated) for recruitment of the peptide [2],"maximal recruitment in dual-FRET with seladelpar, that of FITC-CBP in the same well taken as 100 [3]","maximal recruitment in dual-FRET with seladelpar, that of FITC-TRAP in the same well taken as 100 [3]","maximal recruitment in dual-FRET with pemafibrate, that of FITC-CBP in the same well taken as 100 [4]","maximal recruitment in dual-FRET with pemafibrate, that of FITC-TRAP in the same well taken as 100 [4]",EC50 of pioglitazone (the ligand is titrated) for recruitment of the peptide [5],"maximal recruitment in dual-FRET with pioglitazone, that of FITC-CBP in the same well taken as 100 [6]","maximal recruitment in dual-FRET with pioglitazone, that of FITC-TRAP in the same well taken as 100 [6]",binding result [7],binding result [8],binding result [9],binding result [10],Binder
–,–,–,–,–,–,–,–,–,binds,binds,binds,–,"Biotin-EHASTNMGLEAIIRKALMGKY (NCoR2 (nuclear receptor corepressor 2, SMRT), human, AAs 2321–2341, LXXXIXXXL motif LEAIIRKAL; also called ULight-NCoR2; SMRT; source: synthetic peptide (GenScript)) [NCoR2 corepressor peptide, biotin-labeled (AAs 2321–2341)]"
–,–,–,–,–,–,–,–,–,–,binds,binds,binds,"Biotin-ADPASNLGLEDIIRKALMGSF (NCoR1 (nuclear receptor corepressor 1), human, AAs 2255–2275, LXXXIXXXL motif LEDIIRKAL; also called ULight-NCoR1; N-CoR ID2; source: synthetic peptide (GenScript)) [NCoR1 corepressor peptide, biotin-labeled (AAs 2255–2275)]"
